T1: Fas抗原 on the human lymphocyte cell line HPB−ALL (human, UniProt P25445 26-335)
T1 sequence (looked up): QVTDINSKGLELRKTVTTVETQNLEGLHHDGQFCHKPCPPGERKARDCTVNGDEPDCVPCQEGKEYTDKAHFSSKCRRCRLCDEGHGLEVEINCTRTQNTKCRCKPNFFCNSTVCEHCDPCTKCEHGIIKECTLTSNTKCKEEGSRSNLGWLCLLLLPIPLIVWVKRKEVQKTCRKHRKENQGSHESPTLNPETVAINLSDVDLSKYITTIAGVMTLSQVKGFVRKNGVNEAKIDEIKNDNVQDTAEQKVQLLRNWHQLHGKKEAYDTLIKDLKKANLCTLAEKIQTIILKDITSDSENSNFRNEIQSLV

B1: マウス抗ヒトFasモノクローナル抗体CH11 (mouse anti-human Fas monoclonal antibody CH11, purified from hybridoma culture supernatant) (antibody, mouse IgM)
heavy: EVQLQQSGPELVKPGASVKISCKASGYTFTDYNMHWVKQSHGKSLEWIGYIYPYNGGTGYNQKFKSKATLTVDNSSSTAYMELRSLTSEDSAVYYCARSYYAMDYWGQGTSVTVSSESQSFPNVFPLVSCESPLSDKNLVAMGCLARDFLPSTISFTWNYQNNTEVIQGIRTFPTLRTGGKYLATSQVLLSPKSILEGSDEYLVCKIHYGGKNRDLHVPIPAVAEMNPNVNVFVPPRDGFSGPAPRKSKLICEATNFTPKPITVSWLKDGKLVESGFTTDPVTIENKGSTPQTYKVISTLTISEIDWLNLNVYTCRVDHRGLTFLKNVSSTCAASPSTDILTFTIPPSFADIFLSKSANLTCLVSNLATYETLNISWASQSGEPLETKIKIMESHPNGTFSAKGVASVCVEDWNNRKEFVCTVTHRDLPSPQKKFISKPNEVHKHPPAVYLLPPAREQLNLRESATVTCLVKGFSPADISVQWLQRGQLLPQEKYVTSAPMPEPGAPGFYFTHSILTVTEEEWNSGETYTCVVGHEALPHLVTERTVDKSTGKPTLYNVSLIMSDTGGTCY
light: DVVMTQSPLSLPVSLGDQASISCRSSKSLVHSNGNTYLHWYLQKPGQSPKLLIYKVSNRFSGVPDRFSGSGSGTDFTLKISRVEAEDLGVYFCSQSTHVPPAFGGGTKLEIKRADAAPTVSIFPPSSEQLTSGGASVVCFLNNFYPKDINVKWKIDGSERQNGVLNSWTDQDSKDSTYSMSSTLTLTKDEYERHNSYTCEATHKTSTSPIVKSFNRNEC
chain: DDEATILADNKCMCTRVTSRIIPSTEDPNEDIVERNIRIVVPLNNRENISDPTSPLRRNFVYHLSDVCKKCDPVEVELEDQVVTATQSNICNEDDGVPETCYMYDRNKCYTTMVPLRYHGETKMVQAALTPDSCYPD
B2: pHEX126のみで形質転換したCOS−1細胞の培養上清[B] (CH11 H chain expressed alone) (other)
heavy: B1 heavy
B3: pLEX004のみで形質転換したCOS−1細胞の培養上清[C] (CH11 L chain expressed alone) (other)
light: B1 light
B4: pJEX004のみで形質転換したCOS−1細胞の培養上清[D] (CH11 J chain expressed alone) (other)
chain: B1 chain
B5: 上清[E](pHEX126+pLEX004)に含まれる生産物 (recombinant CH11 H chain + L chain without J chain, COS-1 culture supernatant) (antibody)
heavy: B1 heavy
light: B1 light
B6: 上清[F](pHEX126、pLEX004+pJEX004)に含まれる生産物 (recombinant CH11 H chain + L chain + J chain, COS-1 culture supernatant) (antibody)
heavy: B1 heavy
light: B1 light
chain: B1 chain

Target: T1, Fas抗原 on the human lymphocyte cell line …
Assay: cell-based or functional assay

Going from B1 to B5, the “ED 50 (ng/ml) (MTT assay, HPB-ALL cells))” value falls from 21.2 ng/mL to 4.5 ng/mL (4.7-fold).

With B6 the “ED 50 (ng/ml) (MTT assay, HPB-ALL cells))” value was 22.9 ng/mL.

Compared with B2, B3 is higher in “OD 590 −OD 620 (MTT assay, HPB-ALL cells, 12 h; higher = more living cells)” value: 0.876 for the first, 0.887 for the second.

Going from B4 to B5, the “OD 590 −OD 620 (MTT assay, HPB-ALL cells, 12 h; higher = more living cells)” value falls from 0.883 to 0.176.

In the case of B6, the “OD 590 −OD 620 (MTT assay, HPB-ALL cells, 12 h; higher = more living cells)” value is reported as 0.242.

In the case of B5, the “cytotoxic activity relative to CH11 or to the product of supernatant [F]” value is reported as roughly 5 fold.

Target: ヒトFas抗原の細胞外領域とマウスインターロイキン3受容体の細胞外領域との融合タンパク質 (fusion of human Fas extracellular region and mouse IL-3 receptor extracellular region, from phFas-AIC2) (human; mouse) (UniProt P25445)
Assay: ELISA, COS-1 supernatant with human Fas-mouse IL-3 receptor fusion coated, detection with peroxidase-labelled rat anti-mouse IgM; PBS blank 0.104

Going from B1 to B2, the OD 405 −OD 492 falls from 0.445 to 0.109.

First: B3
Second: B4
The OD 405 −OD 492 of the first is higher: 0.135 for the first, 0.107 for the second.

Going from B5 to B6, the OD 405 −OD 492 falls from 0.33 to 0.202.

— patent publication JPH09322796A (dated 1997)
